In IntAct's records for PubMed 29039417:

B1: BBSome complex member BBS5 (Homo sapiens), Q8N3I7 (parent)
chain: MSVLDALWEDRDVRFDLSAQQMKTRPGEVLIDCLDSIEDTKGNNGDRGRLLVTNLRILWHSLALSRVNVSVGYNCILNITTRTANSKLRGQTEALYILTKCNSTRFEFIFTNLVPGSPRLFTSVMAVHRAYETSKMYRDFKLRSALIQNKQLRLLPQEHVYDKINGVWNLSSDQGNLGTFFITNVRIVWHANMNDSFNVSIPYLQIRSIKIRDSKFGLALVIESSQQSGGYVLGFKIDPVEKLQESVKEINSLHKVYSASPIFGVDYEMEEKPQPLEALTVEQIQDDVEIDSDGHTDAFVAYFADGNKQQDREPVFSEELGLAIEKLKDGFTLQGLWEVMS
partner: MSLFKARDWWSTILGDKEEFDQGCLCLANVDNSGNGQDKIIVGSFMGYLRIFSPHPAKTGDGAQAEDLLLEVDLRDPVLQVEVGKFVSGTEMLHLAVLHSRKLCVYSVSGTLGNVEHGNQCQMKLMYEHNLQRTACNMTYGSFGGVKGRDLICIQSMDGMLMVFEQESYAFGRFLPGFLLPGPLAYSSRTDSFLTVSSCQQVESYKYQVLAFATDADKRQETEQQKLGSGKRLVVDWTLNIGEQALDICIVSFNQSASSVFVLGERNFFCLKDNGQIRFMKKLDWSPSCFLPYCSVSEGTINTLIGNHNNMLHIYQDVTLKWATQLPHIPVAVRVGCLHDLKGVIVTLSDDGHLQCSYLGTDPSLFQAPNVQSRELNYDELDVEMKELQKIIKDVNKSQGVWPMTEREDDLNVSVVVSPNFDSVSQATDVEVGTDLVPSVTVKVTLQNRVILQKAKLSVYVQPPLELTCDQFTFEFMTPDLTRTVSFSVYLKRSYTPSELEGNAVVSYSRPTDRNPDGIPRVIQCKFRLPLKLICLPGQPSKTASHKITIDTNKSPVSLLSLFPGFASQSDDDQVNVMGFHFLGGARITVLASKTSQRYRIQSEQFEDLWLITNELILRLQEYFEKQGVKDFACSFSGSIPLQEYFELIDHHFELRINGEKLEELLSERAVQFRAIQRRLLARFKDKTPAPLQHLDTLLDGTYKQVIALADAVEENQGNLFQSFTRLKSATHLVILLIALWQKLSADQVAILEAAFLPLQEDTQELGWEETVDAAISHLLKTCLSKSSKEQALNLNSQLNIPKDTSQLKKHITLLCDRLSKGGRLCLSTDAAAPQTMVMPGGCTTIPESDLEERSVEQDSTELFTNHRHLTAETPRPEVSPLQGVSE

Variants of: B1
Conditions: with pthb1_human BBS9, Q3SYG4

| Variant | effect of a mutation on the interaction |
| --- | --- |
| Q174E | with no effect |
| Q174K | with no effect |
| Q174A | with no effect |
| S172E | with no effect |
| S172K | with no effect |
| S172A | with no effect |
| F181A | with no effect |
| F181K | with no effect |
| F181E | with no effect |
| R153E | with no effect |
| R153K | with no effect |
| R153A | with no effect |
| K150A | with no effect |
| K150E | with no effect |
| S171E | with no effect |
| S171K | with no effect |
| S171A | with no effect |
| D162A | with no effect |
| D162E | with no effect |
| D162K | with no effect |
| T179E | with no effect |
| T179K | with no effect |
| T179A | with no effect |

| Variant | effect of a mutation on the interaction |
| --- | --- |
| N169A | with no effect |
| N169K | with no effect |
| N169E | with no effect |
| Q157A | with no effect |
| Q157E | with no effect |
| Q157K | with no effect |
| H159E | with no effect |
| H159A | with no effect |
| H159K | with no effect |
| N149E | with no effect |
| N149A | with no effect |
| N149K | with no effect |
| L170K | with no effect |
| L170A | with no effect |
| L170E | with no effect |
| K135E | with no effect |
| K135A | with no effect |
| D173A | with no effect |
| D173E | with no effect |
| D173K | with no effect |
| I182E | with no effect |
| I182K | disrupting interaction strength |
| I182A | with no effect |

| Variant | effect of a mutation on the interaction |
| --- | --- |
| A126K | with no effect |
| A126E | with no effect |
| L146K | with no effect |
| L146E | with no effect |
| L146A | with no effect |
| M125K | with no effect |
| M125E | with no effect |
| M125A | with no effect |
| V167A | with no effect |
| V167K | with no effect |
| V167E | with no effect |
| T183E | with no effect |
| T183A | with no effect |
| T183K | with no effect |
| G166E | with no effect |
| G166K | with no effect |
| G166A | with no effect |
| L152A | with no effect |
| L152E | with no effect |
| L152K | with no effect |
| A130E | with no effect |
| A130K | disrupting interaction strength |
| V160K | with no effect |

| Variant | effect of a mutation on the interaction |
| --- | --- |
| V160E | with no effect |
| V160A | with no effect |
| Q151K | with no effect |
| Q151A | with no effect |
| Q151E | with no effect |
| S134A | with no effect |
| S134K | with no effect |
| S134E | with no effect |
| K141E | with no effect |
| K141A | with no effect |
| E132K | with no effect |
| E132A | with no effect |
| W168K | with no effect |
| W168A | with no effect |
| W168E | with no effect |
| K163E | with no effect |
| K163A | with no effect |
| H128A | with no effect |
| H128E | with no effect |
| H128K | with no effect |
| A145K | with no effect |
| A145T | disrupting interaction strength |
| A145E | with no effect |

| Variant | effect of a mutation on the interaction |
| --- | --- |
| G178R | disrupting interaction strength |
| G178K | with no effect |
| G178E | disrupting interaction strength |
| G178A | with no effect |
| Q148K | with no effect |
| Q148E | with no effect |
| Q148A | with no effect |
| M136K | with no effect |
| M136E | with no effect |
| M136A | with no effect |
| R129E | with no effect |
| R129K | with no effect |
| R129A | with no effect |
| G175K | with no effect |
| G175A | with no effect |
| G175E | with no effect |
| F121K | with no effect |
| L154K | with no effect |
| L154E | with no effect |
| L154A | with no effect |
| F140E | with no effect |
| F140A | with no effect |
| F140K | with no effect |

| Variant | effect of a mutation on the interaction |
| --- | --- |
| N184A | with no effect |
| Y131E | with no effect |
| Y131A | with no effect |
| Y131K | with no effect |
| S123K | with no effect |
| S123E | with no effect |
| S123A | with no effect |
| S123F | disrupting interaction strength |
| F180E | with no effect |
| F180K | disrupting interaction strength |
| F180A | with no effect |
| V124K | disrupting interaction strength |
| V124A | with no effect |
| V124E | with no effect |
| L142E | with no effect |
| L142A | with no effect |
| L142K | with no effect |
| I147K | with no effect |
| I147A | with no effect |
| I147E | with no effect |
| I164A | with no effect |
| I164K | with no effect |
| I164E | with no effect |

| Variant | effect of a mutation on the interaction |
| --- | --- |
| T133E | with no effect |
| T133K | with no effect |
| T133A | with no effect |
| T133I | disrupting interaction strength |
| N176E | with no effect |
| N176K | with no effect |
| N176A | with no effect |
| E158A | with no effect |
| E158K | with no effect |
| D139K | with no effect |
| D139A | with no effect |
| D139E | with no effect |
| S144K | with no effect |
| S144A | with no effect |
| S144E | with no effect |
| L155A | with no effect |
| L155E | with no effect |
| L155K | with no effect |
| R143K | with no effect |
| R143E | with no effect |
| R143A | with no effect |
| T122A | with no effect |
| T122E | with no effect |

| Variant | effect of a mutation on the interaction |
| --- | --- |
| T122K | with no effect |
| R138K | with no effect |
| R138A | with no effect |
| R138E | with no effect |
| L177K | with no effect |
| L177A | with no effect |
| L177E | with no effect |
| N165A | with no effect |
| N165K | with no effect |
| N165E | with no effect |
| V127E | with no effect |
| V127K | with no effect |
| V127A | with no effect |
| Y161K | with no effect |
| Y161E | with no effect |
| Y161A | with no effect |
| Y137A | with no effect |
| Y137K | with no effect |
| Y137E | with no effect |
| P156E | with no effect |
| P156A | with no effect |
| P156K | with no effect |
